Source: PMC2909360 (Molecular microbiology, 2010)

T1: purified papain (UniProt P00784 134-345)
T1 sequence (looked up): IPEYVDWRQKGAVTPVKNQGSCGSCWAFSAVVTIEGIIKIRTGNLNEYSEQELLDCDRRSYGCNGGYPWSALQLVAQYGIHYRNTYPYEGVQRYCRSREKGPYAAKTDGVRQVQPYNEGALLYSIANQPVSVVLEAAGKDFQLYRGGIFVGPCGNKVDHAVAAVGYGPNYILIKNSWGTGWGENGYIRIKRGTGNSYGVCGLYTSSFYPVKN

B1: sialostatin L (natural protein)
chain: TGVFGGYSERANHQANPEFLNLAHYATSTWSAQQPGKTHFDTVAEVVKVETQVVAGTNYRLTLKVAESTCELTSTYNKDTCLPKADAAHRTCTTVVFENLQGDKSVSPFECEAA
B2: sialostatin L2 (natural protein)
chain: MELALRGGYRERSNQDDPEYLELAHYATSTWSAQQPGKTHFDTVVEVLKVETQTVAGTNYRLTLKVAESTCELTSTYNKDTCQANANAAQRTCTTVIYRNLQGEKSISSFECAAA

Legend:
Assay in all cases: cell-based or functional assay
purified papain = target: T1, purified papain
[1] = target: recombinant human cathepsin S (human, UniProt P25774 17-331)
Sequence of recombinant human cathepsin S (P25774 17-331): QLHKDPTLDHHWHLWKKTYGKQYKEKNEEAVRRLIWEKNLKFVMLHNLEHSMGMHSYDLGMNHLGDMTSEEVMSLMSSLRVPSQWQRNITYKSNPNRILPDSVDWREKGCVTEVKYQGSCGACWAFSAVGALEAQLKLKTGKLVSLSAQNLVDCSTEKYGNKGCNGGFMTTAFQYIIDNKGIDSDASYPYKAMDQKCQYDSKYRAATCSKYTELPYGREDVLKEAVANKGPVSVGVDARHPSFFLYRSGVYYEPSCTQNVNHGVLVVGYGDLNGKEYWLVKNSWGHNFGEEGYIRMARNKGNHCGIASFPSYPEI

[2] = target: recombinant human cathepsin L (human, UniProt P07711 18-333)
Sequence of recombinant human cathepsin L (P07711 18-333): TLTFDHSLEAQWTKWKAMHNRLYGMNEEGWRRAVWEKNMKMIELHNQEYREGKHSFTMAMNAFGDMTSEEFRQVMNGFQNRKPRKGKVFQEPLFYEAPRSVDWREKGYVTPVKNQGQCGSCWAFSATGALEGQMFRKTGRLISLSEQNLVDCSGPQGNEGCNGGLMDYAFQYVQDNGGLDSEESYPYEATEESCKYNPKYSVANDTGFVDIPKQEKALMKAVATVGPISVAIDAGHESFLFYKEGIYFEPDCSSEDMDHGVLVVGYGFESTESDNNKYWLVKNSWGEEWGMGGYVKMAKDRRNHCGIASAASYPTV

[3] = target: purified bovine cathepsin C (bovine)
Sequence of purified bovine cathepsin C (bovine) (Q3ZCJ8 25-463): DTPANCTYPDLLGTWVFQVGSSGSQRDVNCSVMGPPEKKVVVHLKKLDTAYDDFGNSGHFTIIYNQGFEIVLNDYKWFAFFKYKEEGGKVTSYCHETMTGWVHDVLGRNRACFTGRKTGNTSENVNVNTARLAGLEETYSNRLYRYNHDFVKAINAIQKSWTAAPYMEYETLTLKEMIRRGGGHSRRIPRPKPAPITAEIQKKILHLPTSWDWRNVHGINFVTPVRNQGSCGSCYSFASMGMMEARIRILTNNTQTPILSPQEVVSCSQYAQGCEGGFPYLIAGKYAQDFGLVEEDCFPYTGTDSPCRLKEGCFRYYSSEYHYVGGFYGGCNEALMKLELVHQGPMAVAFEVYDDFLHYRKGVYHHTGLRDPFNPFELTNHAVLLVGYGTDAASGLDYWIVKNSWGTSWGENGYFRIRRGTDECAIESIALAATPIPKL

Binder | IC50 of inhibition of enzyme activity (fluorogenic substrate) (purified papain) | IC50 of inhibition of enzyme activity (fluorogenic substrate) [1] | IC50 of inhibition of enzyme activity (fluorogenic substrate) [2] | IC50 of inhibition of enzyme activity (fluorogenic substrate) [3]
B1 | 0.5 nM | 0.2 nM | 1.6 nM | 160 nM
B2 | 0.4 nM | 114 nM | 1.1 nM | 4720 nM
